Substitutions are numbered along the chain they refer to. Read-outs that look alike come from different tables or passages of the source.
T1: corticotropin-releasing hormone (CRH) peptide (human and mouse (same sequence), not fully specified)
T1 peptide: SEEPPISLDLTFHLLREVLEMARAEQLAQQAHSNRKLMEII

T2: CRH (NT-Biotin) (human and mouse (same sequence), not fully specified; biotin at the N-terminus)
T2 peptide: T1 peptide

T3: CRH (CT-Biotin) (human and mouse (same sequence), biotin on an added C-terminal K (CRH-K-Biotin))
T3 construct: also called Peptide 4 (CRH-Biotin)
T3 peptide: T1 peptide

B1: PR005656 (antibody, human IgG1, kappa, V domains shown)
VH: EVQLVESGGVLVQPGGSLRLSCAASGFTFSSYWMTWVRQAPGKGLEWVANIKQEGSEKYYVDSVKGRFTISRDNAKNSLFLQMNSLRAEDTAVYYCARTLIFDYWGQGTLVTVSS
VL: DIVMTQSPLSLPVTPGEPASISCRSSQSLLHSTGYNSLEWYLQKPGQSPQLLIYLGSNRASGVPDRFSGSGSGTDFTLKISRVEAEDVGIYYCMQTLQTPITFGQGTRLEIKR
notes: PTM-removal variant of PR004290
B2: PR006147 (antibody, human IgG1, kappa, V domains shown)
VH: B1 VH with E54D, G55A
VL: B1 VL with N36H
notes: as for B1
B3: PR005662 (antibody, human IgG1, kappa, V domains shown)
VH: B1 VH with E54D, G55A
VL: B1 VL with N36Q
notes: as for B1
B4: PR006142 (antibody, human IgG1, kappa, V domains shown)
VH: B1 VH
VL: B1 VL with N36D
notes: as for B1
B5: PR005660 (antibody, human IgG1, kappa, V domains shown)
VH: B1 VH
VL: B1 VL with N36Q
notes: as for B1
B6: PR005658 (antibody, human IgG1, kappa, V domains shown)
VH: B1 VH with E54D
VL: B1 VL with N36Q
notes: as for B1
B7: PR006146 (antibody, human IgG1, kappa, V domains shown)
VH: B1 VH with E54D, G55A
VL: B1 VL with N36D
notes: as for B1
B8: PR006144 (antibody, human IgG1, kappa, V domains shown)
VH: B1 VH
VL: B1 VL with S37P
notes: as for B1
B9: PR302036 (antibody, human IgG1, kappa, V domains shown)
VH: EMQLVESGGGLVQPGGSLRLSCAASGFTFSNYWMNWVRQAPGKGLEWVAEIRLKSNNYATHYAESVKGRFTISRDDSKSSVYLQMNSLKTEDTAVYYCTVGTLVYWGQGTLVTVSS
VL: DIVLTQSPDSLAVSLGERATINCRASQSVSTSTYNYMHWFQQKPGQPPKLLIKFASNLESGVPDRFSGSGSGTDFTLTISSLQAEDTAVYYCQHSWEIPYTFGQGTKLEIKR
notes: humanized variant of PR301777
B10: PR302041 (antibody, human IgG1, kappa, V domains shown)
VH: B9 VH
VL: DIQLTQSPSSLSASVGDRVTITCRASQSVSTSTYNYMHWFQQKPGKAPKLLIKFASNLESGVPSRFSGSGSGTDFTLTISSLQPEDTATYYCQHSWEIPYTFGQGTKLEIKR
notes: humanized variant of PR301777
B11: PR302038 (antibody, human IgG1, kappa, V domains shown)
VH: B9 VH
VL: EIVLTQSPATLSLSPGERATLSCRASQSVSTSTYNYMHWFQQKPGQAPRLLIKFASNLESGIPARFSGSGSGTDFTLTISSLEPEDTAVYYCQHSWEIPYTFGQGTKLEIKR
notes: humanized variant of PR301777
B12: PR302029 (antibody, human IgG1, kappa, V domains shown)
VH: B9 VH with M2V, A49G, S79N, V81L
VL: B9 VL
notes: humanized variant of PR301777
B13: PR302045 (antibody, human IgG1, kappa, V domains shown)
VH: B9 VH with M2V, R19K, P41S, A49G, S79N, S80T, V81A, V100R
VL: B11 VL
notes: humanized variant of PR301777
B14: PR302069 (antibody, human IgG1, kappa, V domains shown)
VH: B9 VH with Q13K, S80T
VL: B10 VL
notes: humanized variant of PR301777
B15: PR302064 (antibody, human IgG1, kappa, V domains shown)
VH: B9 VH with Q13K, S80T
VL: B9 VL
notes: humanized variant of PR301777
B16: PR302031 (antibody, human IgG1, kappa, V domains shown)
VH: B9 VH with M2V, A49G, S79N, V81L
VL: B11 VL
notes: humanized variant of PR301777
B17: PR302034 (antibody, human IgG1, kappa, V domains shown)
VH: B9 VH with M2V, A49G, S79N, V81L
VL: B10 VL
notes: humanized variant of PR301777
B18: PR302043 (antibody, human IgG1, kappa, V domains shown)
VH: B9 VH with M2V, R19K, P41S, A49G, S79N, S80T, V81A, V100R
VL: B9 VL
notes: humanized variant of PR301777
B19: PR302048 (antibody, human IgG1, kappa, V domains shown)
VH: B9 VH with M2V, R19K, P41S, A49G, S79N, S80T, V81A, V100R
VL: B10 VL
notes: humanized variant of PR301777
B20: PR302052 (antibody, human IgG1, kappa, V domains shown)
VH: B9 VH with R19K, P41S, S80T
VL: B11 VL
notes: humanized variant of PR301777
B21: PR302066 (antibody, human IgG1, kappa, V domains shown)
VH: B9 VH with Q13K, S80T
VL: B11 VL
notes: humanized variant of PR301777
B22: PR302050 (antibody, human IgG1, kappa, V domains shown)
VH: B9 VH with R19K, P41S, S80T
VL: B9 VL
notes: humanized variant of PR301777

How the values were obtained:
[1] = target: T1, corticotropin-releasing hormone (CRH) …; experiment: cell-based or functional assay
CRH (NT-Biotin) [2] = target: T2, CRH (NT-Biotin); experiment: ELISA, biotinylated CRH on streptavidin plate
Method: (§1) Streptavidin (Thermo, Cat: 21125) was diluted in PBS to a concentration of 2 μg/ml. 100 μl of diluted streptavidin was added per well to ELISA microplates, and the plates were incubated overnight at 4° C. […] 100 μL of 3,3′,5,5′-tetramethylbenzidine (TMB) substrate (Biopanda, Cat: TMB-S-003) was added, and the plates were incubated at room temperature for 15 minutes. 100 μL of ELISA stopping solution (Solarbio, Cat #: C1058) was added to terminate the reaction, and the optical density at 450 nm (OD450 nm) was determined by an ELISA plate reader (Molecular Devices, Spectra max 384 plus).

CRH (CT-Biotin) [3] = target: T3, CRH (CT-Biotin); experiment: ELISA, biotinylated CRH on streptavidin plate
Method: as §1

[4] = target: T1, corticotropin-releasing hormone (CRH) …; experiment: cell-based or functional assay
CRH (NT-Biotin) [5] = target: T2, CRH (NT-Biotin); experiment: ELISA, biotinylated CRH on streptavidin plate
Method: as §1

CRH (CT-Biotin) [6] = target: T3, CRH (CT-Biotin); experiment: ELISA, biotinylated CRH on streptavidin plate
Method: as §1

[7] = target: T1, corticotropin-releasing hormone (CRH) …; experiment: cell-based or functional assay

Row | hCRHR1 Luciferase Reporter Assay IC50 [1] [nM] | mCrhr1 Luciferase Reporter Assay IC50 [1] [nM] | EC50 (CRH (NT-Biotin) [2]) [nM] | EC50 (CRH (CT-Biotin) [3]) [nM] | hCRHR1 Luciferase Reporter Assay IC50 [4] [nM] | mCrhr1 Luciferase Reporter Assay IC50 [4] [nM] | EC50 (CRH (NT-Biotin) [5]) [nM] | EC50 (CRH (CT-Biotin) [6]) [nM] | hCRHR1 Luciferase Reporter Assay IC50 [7] [nM] | mCrhr1 Luciferase Reporter Assay IC50 [7] [nM] | Binder
1 | 1.74 | 4.26 | 0.026 | 0.033 |  |  |  |  |  |  | B1
2 | 12.1 | 39.9 | 0.023 | 0.027 |  |  |  |  |  |  | B2
3 | 15.8 | 42.4 | 0.023 | 0.052 |  |  |  |  |  |  | B3
4 | 4.4 |  | 0.048 | 0.046 |  |  |  |  |  |  | B4
5 | 10.3 | 29 | 0.033 | 0.051 |  |  |  |  |  |  | B5
6 | 16.2 | 29.7 | 0.026 | 0.044 |  |  |  |  |  |  | B6
7 | 4.89 | 18 | 0.025 | 0.024 |  |  |  |  |  |  | B7
8 | 1.2 | 3.6 | 0.033 | 0.032 |  |  |  |  |  |  | B8
9 |  |  |  |  | 1.4 | 3.03 | 0.04 | 0.033 |  |  | B9
10 |  |  |  |  | 2.54 | 7.17 | 0.063 | 0.035 |  |  | B10
11 |  |  |  |  | 3.34 | 10.1 | 0.065 | 0.04 |  |  | B11
12 |  |  |  |  | 2.65 | 13.9 | 0.03 | 0.027 |  |  | B12
13 |  |  |  |  | 15.3 |  | 0.128 | 0.046 |  |  | B13
14 |  |  |  |  | 1.54 | 4.4 | 0.061 | 0.016 |  |  | B14
15 |  |  |  |  | 0.531 | 2.39 | 0.062 | 0.022 | 0.989 | 4.92 | B15
16 |  |  |  |  | 14 |  | 0.037 | 0.028 |  |  | B16
17 |  |  |  |  | 6.87 | 204 | 0.026 | 0.022 |  |  | B17
18 |  |  |  |  | 3.87 | 9.97 | 0.046 | 0.03 |  |  | B18
19 |  |  |  |  | 6.66 | 33.3 | 0.043 | 0.024 |  |  | B19
20 |  |  |  |  | 2.05 | 7.32 | 0.048 | 0.018 |  |  | B20
21 |  |  |  |  | 2.49 | 11.5 | 0.077 | 0.019 |  |  | B21
22 |  |  |  |  | 0.572 | 2.7 | 0.021 | 0.01 |  |  | B22
